The test has as its target S100A11 Q22R (mutant 25mer, peptide 60 / P60; residues not given) peptide on HLA-DR (human). The test can be described thus: MSGV1 TCR-transduced healthy-donor peripheral blood T cells with B cells pulsed with the Q22R peptide. Secretion was inhibited by anti-HLA-DR/-DP/-DQ but not by anti-HLA-ABC. TNFa and Granzyme B were also released. The TIL clone released IFNg, TNFa and Granzyme B, which anti-HLA-DR blocked but anti-HLA-DP and anti-HLA-DQ did not.; full-length, on cells. The note with it: chains Valpha:Vbeta.

B1: S100A11^Q22R-specific TCR (protein)
chain 1: SQKIEQNSEALNIQEGKTATLTCNYTNYSPAYLQWYRQDPGRGPVFLLLIRENEKEKRKERLKVTFDTTLKQSLFHITASQPADSATYLCALDFTGGGNKLTFGTGTQLKVEL
chain 2: NAGVMQNPRHLVRRRGQEARLRCSPMKGHSHVYWYRQLPEEGLKFMVYLQKENIIDESGMPKERFSAEFPKEGPSILRIQQVVRGDSAAYFCASSPSTGGIGDTQYFGPGTRLTVL
Regarding B1, the IFNg released is > 15000 pg/mL.

These data come from patent US20260069690A1.
